# Measured values as given in the supplement of paper PMC9112550, “Optimization of the antimicrobial peptide Bac7 by deep mutational scanning” (BMC Biology, 2022).
# Tested on: Escherichia coli TOP10
# Assay: shrunken log2 fold change of peptide-encoding DNA abundance (4.5 h post-induction vs induction); higher = less antimicrobial activity (less host growth inhibition)
# Details: time post-induction: 4.5 h; library: site-saturation at positions 5, 18, 19, 20
# 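Also: peptides expressed intracellularly from a pBAD plasmid library in pooled LB shake-flask culture, induced with 0.3% L-arabinose, DNA abundance read by NGS, three biological replicates, DESeq2 with apeglm shrinkage.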
row,Sequence,shrunken log2 fold change
1,RRIRFRPPRLPRPRPRPRFTPRP,0.0956
2,RRIRKRPPRLPRPRPRPMTEPRP,0.0103
3,RRIRRRPPRLPRPRPRPQCAPRP,0.647
4,RRIRHRPPRLPRPRPRPAFPPRP,0.46
5,RRIRLRPPRLPRPRPRPRRAPRP,0.585
6,RRIRLRPPRLPRPRPRPMEHPRP,-0.00579
7,RRIRERPPRLPRPRPRPHWHPRP,-0.298
8,RRIRFRPPRLPRPRPRPALAPRP,0.257
9,RRIRSRPPRLPRPRPRPPLQPRP,0.504
10,RRIRTRPPRLPRPRPRPFLQPRP,0.0237
11,RRIRDRPPRLPRPRPRPWARPRP,-0.0626
12,RRIRNRPPRLPRPRPRPFSLPRP,-0.0274
13,RRIRDRPPRLPRPRPRPNGDPRP,-0.00931
14,RRIRQRPPRLPRPRPRPEWCPRP,-0.0929
15,RRIRSRPPRLPRPRPRPGYEPRP,-0.157
16,RRIRPRPPRLPRPRPRPNRSPRP,0.16
17,RRIRWRPPRLPRPRPRPNQPPRP,0.198
18,RRIRYRPPRLPRPRPRPEVWPRP,0.446
19,RRIRDRPPRLPRPRPRPEFRPRP,0.283
20,RRIRRRPPRLPRPRPRPCCFPRP,0.151
21,RRIRQRPPRLPRPRPRPYDLPRP,-0.0546
22,RRIRGRPPRLPRPRPRPLLKPRP,1.39
23,RRIRPRPPRLPRPRPRPDKNPRP,-0.308
24,RRIRFRPPRLPRPRPRPKMWPRP,0.348
25,RRIRPRPPRLPRPRPRPRHNPRP,-0.0793

row,Sequence,shrunken log2 fold change
1,RRIRARPPRLPRPRPRPCWYPRP,-0.16
2,RRIRIRPPRLPRPRPRPKWDPRP,-0.13
3,RRIRSRPPRLPRPRPRPKLSPRP,0.352
4,RRIRDRPPRLPRPRPRPNHYPRP,-0.459
5,RRIRARPPRLPRPRPRPLCRPRP,0.327
6,RRIRARPPRLPRPRPRPMVTPRP,0.21
7,RRIRKRPPRLPRPRPRPWVWPRP,0.445
8,RRIRNRPPRLPRPRPRPTYGPRP,-0.0506
9,RRIRVRPPRLPRPRPRPMLQPRP,0.154
10,RRIRSRPPRLPRPRPRPKGEPRP,0.379
11,RRIRMRPPRLPRPRPRPSSFPRP,-0.0557
12,RRIRYRPPRLPRPRPRPTEWPRP,-0.0714
13,RRIRYRPPRLPRPRPRPAQQPRP,0.0788
14,RRIRHRPPRLPRPRPRPPNYPRP,-0.0558
15,RRIRWRPPRLPRPRPRPWWSPRP,0.173
16,RRIRQRPPRLPRPRPRPPQPPRP,1.1
17,RRIRHRPPRLPRPRPRPYHFPRP,-0.686
18,RRIRYRPPRLPRPRPRPIFDPRP,-0.737
19,RRIRSRPPRLPRPRPRPPHDPRP,0.277
20,RRIRLRPPRLPRPRPRPCCMPRP,-0.408
21,RRIRARPPRLPRPRPRPYTTPRP,-0.168
22,RRIRSRPPRLPRPRPRPFFGPRP,0.148
23,RRIRLRPPRLPRPRPRPQDEPRP,0.119
24,RRIRGRPPRLPRPRPRPTQWPRP,0.387
25,RRIRMRPPRLPRPRPRPSKIPRP,-0.0332

row,Sequence,shrunken log2 fold change
1,RRIRGRPPRLPRPRPRPDMRPRP,1.36
2,RRIRARPPRLPRPRPRPCGYPRP,0.0562
3,RRIRPRPPRLPRPRPRPCCIPRP,-0.269
4,RRIRPRPPRLPRPRPRPQGFPRP,-0.0446
5,RRIRYRPPRLPRPRPRPRPAPRP,0.393
6,RRIRRRPPRLPRPRPRPEEKPRP,-0.00133
7,RRIRQRPPRLPRPRPRPYLNPRP,-0.329
8,RRIRHRPPRLPRPRPRPTQDPRP,1.87
9,RRIRNRPPRLPRPRPRPTVPPRP,-0.233
10,RRIRLRPPRLPRPRPRPSPQPRP,0.362
11,RRIRDRPPRLPRPRPRPIWFPRP,-0.192
12,RRIRRRPPRLPRPRPRPPWHPRP,0.516
13,RRIRQRPPRLPRPRPRPFQGPRP,-0.0134
14,RRIRKRPPRLPRPRPRPQHHPRP,-0.201
15,RRIRERPPRLPRPRPRPMFYPRP,-0.0786
16,RRIRRRPPRLPRPRPRPYLVPRP,-0.0711
17,RRIRLRPPRLPRPRPRPVIIPRP,-0.242
18,RRIRCRPPRLPRPRPRPYDPPRP,-0.914
19,RRIRPRPPRLPRPRPRPYHDPRP,-0.0378
20,RRIRFRPPRLPRPRPRPNNWPRP,-0.369
21,RRIRHRPPRLPRPRPRPTMDPRP,-0.179
22,RRIRDRPPRLPRPRPRPIHGPRP,-0.0134
23,RRIRLRPPRLPRPRPRPCFYPRP,-0.504
24,RRIRQRPPRLPRPRPRPSFSPRP,-0.443
25,RRIRYRPPRLPRPRPRPTNSPRP,-0.342
